Measurements taken from patent US20110281938.

Tests used:
[1] = target: TFPI (source and species not stated; Examples 8, 12 and 45), P10646
[2] = target: Recombinant human TFPI purified from a cell line from Novo Nordisk

TFPI (source and species not stated; Examples 8, 12 and 45), P10646, sequence (P10646 whole entry, looked up): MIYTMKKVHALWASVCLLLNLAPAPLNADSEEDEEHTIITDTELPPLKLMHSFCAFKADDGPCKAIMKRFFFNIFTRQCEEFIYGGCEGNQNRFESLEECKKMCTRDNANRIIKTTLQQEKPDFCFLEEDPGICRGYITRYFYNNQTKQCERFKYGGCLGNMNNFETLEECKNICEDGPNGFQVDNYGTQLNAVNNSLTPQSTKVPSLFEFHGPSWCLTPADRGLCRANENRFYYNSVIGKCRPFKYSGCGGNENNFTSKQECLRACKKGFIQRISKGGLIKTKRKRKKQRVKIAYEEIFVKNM

B1: Factor Xa (FXa) (protein)
chain 1: ANSFLEEMKKGHLERECMEETCSYEEAREVFEDSDKTNEFWNKYKDGDQCETSPCQNQGKCKDGLGEYTCTCLEGFEGKNCELFTRKLCSLDNGDCDQFCHEEQNSVVCSCARGYTLADNGKACIPTGPYPCGKQTLER
chain 2: IVGGQECKDGECPWQALLINEENEGFCGGTILSEFYILTAAHCLYQAKRFKVRVGDRNTEQEEGGEAVHEVEVVIKHNRFTKETYDFDIAVLRLKTPITFRMNVAPACLPERDWAESTLMTQKTGIVSGFGRTHEKGRQSTRLKMLEVPYVDRNSCKLSSSFIITQNMFCAGYDTKQEDACQGDSGGPHVTRFKDTYFVTGIVSWGEGCARKGKYGIYTKVTAFLKWIDRSMKTRGLPKAKSHAPEVITSSPLK
FXa cleavage of chromogenic substrate S-2765, substrate added last, 1 nM FXa [1]: In the presence of ≧8 nM TFPI, inhibition is nearly complete under these conditions and little product is formed

B2: tissue factor:FVIIa complex (TF:FVIIa) (protein)
chain 1: SGTTNTVAAYNLTWKSTNFKTILEWEPKPVNQVYTVQISTKSGDWKSKCFYTTDTECDLTDEIVKDVKQTYLARVFSYPAGNVESTGSAGEPLYENSPEFTPYLETNLGQPTIQSFEQVGTKVNVTVEDERTLVRRNNTFLSLRDVFGKDLIYTLYYWKSSSSGKKTAKTNTNEFLIDVDKGENYCFSVQAVIPSRTVNRKSTDSPVECMGQEKGEFREIFYIIGAVVFVVIILVIILAISLHKCRKAGVGQSWKENSPLNVS
chain 2: ANAFLEELRPGSLERECKEEQCSFEEAREIFKDAERTKLFWISYSDGDQCASSPCQNGGSCKDQLQSYICFCLPAFEGRNCETHKDDQLICVNENGGCEQYCSDHTGTKRSCRCHEGYSLLADGVSCTPTVEYPCGKIPILEKRNASKPQGRIVGGKVCPKGECPWQVLLLVNGAQLCGGTLINTIWVVSAAHCFDKIKNWRNLIAVLGEHDLSEHDGDEQSRRVAQVIIPSTYVPGTTNHDIALLRLHQPVVLTDHVVPLCLPERTFSERTLAFVRFSLVSGWGQLLDRGATALELMVLNVPRLMTQDCLQQSRKVGDSPNITEYMFCAGYSDGSKDSCKGDSGGPHATHYRGTWYLTGIVSWGQGCATVGHFGVYTRVSQYIEWLQKLMRSEPRPGVLLRAPFP
TF:FVIIa activity, hydrolysis of fluorogenic substrate SN-17c, 8 nM TFPI [1]: TFPI inhibited approximately 50% of TF:FVIIa activity under these conditions

B3: extrinsic Xase: re-lipidated recombinant human tissue factor (Innovin) with factor VIIa (Enzyme Research Laboratories) (protein)
chain 1: SGTTNTVAAYNLTWKSTNFKTILEWEPKPVNQVYTVQISTKSGDWKSKCFYTTDTECDLTDEIVKDVKQTYLARVFSYPAGNVESTGSAGEPLYENSPEFTPYLETNLGQPTIQSFEQVGTKVNVTVEDERTLVRRNNTFLSLRDVFGKDLIYTLYYWKSSSSGKKTAKTNTNEFLIDVDKGENYCFSVQAVIPSRTVNRKSTDSPVECMGQEKGEFREIFYIIGAVVFVVIILVIILAISLHKCRKAGVGQSWKENSPLNVS
chain 2: ANAFLEELRPGSLERECKEEQCSFEEAREIFKDAERTKLFWISYSDGDQCASSPCQNGGSCKDQLQSYICFCLPAFEGRNCETHKDDQLICVNENGGCEQYCSDHTGTKRSCRCHEGYSLLADGVSCTPTVEYPCGKIPILEKRNASKPQGRIVGGKVCPKGECPWQVLLLVNGAQLCGGTLINTIWVVSAAHCFDKIKNWRNLIAVLGEHDLSEHDGDEQSRRVAQVIIPSTYVPGTTNHDIALLRLHQPVVLTDHVVPLCLPERTFSERTLAFVRFSLVSGWGQLLDRGATALELMVLNVPRLMTQDCLQQSRKVGDSPNITEYMFCAGYSDGSKDSCKGDSGGPHATHYRGTWYLTGIVSWGQGCATVGHFGVYTRVSQYIEWLQKLMRSEPRPGVLLRAPFP
FXa generation by the extrinsic Xase (chromogenic FXa substrate), 2 nM TFPI [2]: curve #6 shows that TFPI shuts down Xa generation in the absence of ARC19499
